Experiment [1] addresses T1, 金黄色葡萄球菌肠毒素B (Staphylococcus aureus, UniProt P01552 28-266).
T1 sequence: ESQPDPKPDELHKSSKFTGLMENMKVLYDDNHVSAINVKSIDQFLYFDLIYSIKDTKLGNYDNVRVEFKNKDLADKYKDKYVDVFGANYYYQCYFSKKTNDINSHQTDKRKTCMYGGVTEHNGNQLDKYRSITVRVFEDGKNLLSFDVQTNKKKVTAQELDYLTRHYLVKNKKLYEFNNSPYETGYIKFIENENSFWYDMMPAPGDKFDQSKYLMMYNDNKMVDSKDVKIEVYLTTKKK
Description: direct ELISA, antigen coated, HRP-conjugated nanobody.

Experiment [2] deals with T2, 金黄色葡萄球菌肠毒素A (Staphylococcus aureus, UniProt P0A0L2 25-257).
T2 sequence: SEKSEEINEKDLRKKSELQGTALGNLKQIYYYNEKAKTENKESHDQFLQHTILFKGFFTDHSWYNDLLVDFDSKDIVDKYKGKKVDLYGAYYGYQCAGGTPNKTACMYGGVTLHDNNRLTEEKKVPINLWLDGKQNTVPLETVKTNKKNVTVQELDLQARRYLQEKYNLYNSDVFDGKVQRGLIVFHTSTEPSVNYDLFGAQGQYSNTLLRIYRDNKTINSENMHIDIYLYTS
Kind of experiment: phage ELISA on coated SEA. (In general: An ELISA detects its analyte on a solid surface through an enzyme-linked reagent.)

B1: 金黄色葡萄球菌肠毒素A纳米抗体A13 (VHH)
VHH: ESGGGSVQAGGSLRLSCAASGDAYMCKCMGWFRQGPGKEREKVAAIYITDGSTYYADSVKGRFTLSQDNAKNTVYLQMNSLKPEDTAMYYCAASTFYGCETGLHGYNYWGQGTQVTVS
As for B1, the binding result in experiment [1] is reported as “no binding (tested: 500ng/mL (coating))”; in experiment [2], “binds”.

These data come from patent CN110526967A (UNIV NORTHWEST A&F, dated 2019).
